Test system: Bacillus subtilis
Test: cleaved RNA product abundance (RNA/gDNA barcode ratio) relative to median wild-type variant (ratio to wild type); higher = more accumulation of the downstream cleavage product
Outline: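 Oligos with a 9% error rate were used to build barcoded, mutagenized RNase Y cleavage-site windows within truncated aprE or tetM reporter mRNAs, which were integrated into the B. subtilis chromosome. Cultures were grown in LB at 37°C between OD600 0.0003 and 0.3. Cleaved RNA was gel-selected, reverse transcribed and barcode-sequenced, as were genomic DNA barcodes, and UMIs were collapsed. Cleaved product abundance is the scaled RNA:gDNA barcode ratio, with the median construct carrying the unmutated site as reference.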

[1] = experiment (reporter, strain, medium): exp 4a: truncated aprE reporter, strain BJT201 with 2% xylose (RNase J1 expressed), cleavage site: cggR-gapA (positions -7 to +36 mutated)
[2] = experiment (reporter, strain, medium): exp 2b: truncated aprE reporter, strain BJT200, cleavage site: cggR-gapA (positions -7 to +36 mutated)
[3] = experiment (reporter, strain, medium): exp 8a: truncated aprE reporter, strain BJT201 with 2% xylose (RNase J1 expressed), cleavage site: glnRA (positions -5 to +31 mutated)
[4] = experiment (reporter, strain, medium): exp 6: tetM reporter, strain 168, cleavage site: cggR-gapA (positions -7 to +36 mutated)

Sequence | cleaved RNA product abundance [1] | cleaved RNA product abundance [3] | also measured
ACAGACGAAGGAGCCGCAAAGAAGTTATTAAGGGATGAATAATACCTCAATACAAATATCTCTCACTTATTTAAA | 0.0658 | – | –
ACAGACGAAGGAGCCGCAACGAAGTTATTAAGGTATGAATAATCCCTCAATATAAATATCTCTCACTTATTTAAA | 0.0862 | – | –
ACAGACGAAGGAGCCGCAAAGAAGTTATTAAGGGCTAAATAATCCCTCAATATAAATATCTCTCACTTATTTAAA | 0.368 | – | cleaved RNA product abundance [2]: 0.389
CGACATGTCCCGCTTCTTTCATTAATCCGTTAGCTACTGTTTTGCAATATACATTTACCTTTTAAGAGGAGGAAT | – | 0.187 | –
ACAGACGAAGGAGCCGCAACGAAGTTATTAAGGGATGAATAATACCTCAATATAAATATCTCTCACTTATTTAAA | 0.18 | – | cleaved RNA product abundance [2]: 0.111
CGACATGTCCCGCTTCTTTCATTAATCCGTTAGCACCTGTTTTGCTATATACATTTACCTTTTAAGAGGAGGAAT | – | 0.748 | –
ACAGACGAAGGAGCCGCAAAGAAGTTATTAAGGGATGAATAATACATCAATATAAATATCTCTCACTTATTTAAA | 0.0848 | – | –
CGACATGTCCCGCTTCTTTCATTAATCCGTTAGCCACTGTTTTGCTATATACATTTACTTTTTAAGAGGAGGAAT | – | 0.98 | –
ACAGACGAAGGAGCCGCAAAGAAGTTATTAAGGGATGAATATACCCTCAATATAAATATCTCTCACTTATTTAAA | 0.485 | – | –
ACAGACGAAGGAGCCGCAAAGAAGTTATTAAGGGATGAATAATCCCTCAATATATATAACTCTCACTTATTTAAA | 0.429 | – | cleaved RNA product abundance [2]: 0.679
ACAGACGAAGGAGCCGCAAAGAAGTTATTAAGGGATGAATAATCCCTAAATATAAAGATCTCTCACTTATTTAAA | 0.356 | – | –
ACAGACGAAGGAGCCGCAAAGAAGTTATTAAGTGATGACTAATCCCTCAATATAAATATCTCTCACTTATTTAAA | 0.111 | – | cleaved RNA product abundance [2]: 0.081
ACAGACGAAGGAGCCGCAAAGCATTTATTAAGGGATGAATAATCCCTCAATATAAATATCTCTCACTTATTTAAA | 0.256 | – | –
ACAGACGAAGGAGCCGCAAAGAAGTTATTAAAGGATGAATAATCCCTCAATATACATATCTCTCACTTATTTAAA | 0.17 | – | cleaved RNA product abundance [4]: 0.136
ACAGACGAAGGAGCCGCAAAGAAGTTATTAGGGGTTGAATAATCCCTCAATATAAATATCTCTCACTTATTTAAA | 0.254 | – | –
ACAGACGAAGGAGCCGCAAAGAAGTTATTAAGGTATGAATAATCCCTCAATATAATTATCTCTCACTTATTTAAA | 0.0923 | – | –
ACAGACGAAGGAGCCGCAAAGAAGTTATTAAGGGATGAAAAATACCTCAATATAAATATCTCTCACTTATTTAAA | 0.169 | – | cleaved RNA product abundance [2]: 0.114
CGACATGTCCCGCTTCTTTCATTATTCCGTTAGTAACTGTTTTGCTATATACATTTACCTTTTAAGAGGAGGAAT | – | 0.651 | –
ACAGACGAAGGAGCCGCAAAGAAGTTATTAAGGGATGAAAAATCCCTCAATATCAATATCTCTCACTTATTTAAA | 0.0918 | – | –
ACAGACGAAGGAGCCGCAACGAAGTTATTAAGGGATAAATAATCCCTCAATATAAATATCTCTCACTTATTTAAA | 0.739 | – | cleaved RNA product abundance [2]: 0.891

Sequence | cleaved RNA product abundance [1] | cleaved RNA product abundance [3] | also measured
ACAGACGAAGGAGCCGCAAAGAAGTCATTAAGAGATGAATAATCCCTCAATATAAATATCTCTCACTTATTTAAA | 0.137 | – | cleaved RNA product abundance [2]: 0.108
ACAGACGAAGGAGCCGCAAAGAAGTTATAAAGGGATGTATAATCCCTCAATATAAATATCTCTCACTTATTTAAA | 0.401 | – | cleaved RNA product abundance [2]: 0.322
CGACATGTCCCGCTTCTTTCATTAATCCGTTAGCAACTGTTTTCCTATATACATTAACCTTTTAAGAGGAGGAAT | – | 0.43 | –
CGACATGTCCCGCTTCTTTCATTAATACGTTAGCAACTGTTTTGCTATATCCATTTACCTTTTAAGAGGAGGAAT | – | 0.193 | –
CGACATGTCCCGCTTCTTTCATTAATCCCTTAGCAACTGTTTTGATATATACATTTAACTTTTAAGAGGAGGAAT | – | 0.245 | –
ACAGACGAAGGAGCCGCAAAGAAGTTGTTAAGGGATGAATAATCCCTCAATATAAATACCTCTCACTTATTTAAA | 0.182 | – | –
CGACATGTCCCGCTTCTTTCATTATTCCGTTAGCAACTGTTTTGCTATATACTTTTACCTTTTAAGAGGAGGAAT | – | 0.815 | –
CGACATGTCCCGCTTCTTTCATTAATCCGTTAGCGACTGTTTTGATATATACATTTACCTTTTAAGAGGAGGAAT | – | 0.24 | –
ACAGACGAAGGAGCCGCAAAGAAATTATTAAGGGATGAATAACCCCTCAATATAAATATCTCTCACTTATTTAAA | 0.671 | – | –
ACAGACGAAGGAGCCGCAAAGGAGTTATTAAGGGATGAAAAATCCCTCAATATAAATATCTCTCACTTATTTAAA | 0.576 | – | –
CGACATGTCCCGCTTCTTTCATTATTCCGTTAGCAACAGTTTTGCTATATACATTTACCTTTTAAGAGGAGGAAT | – | 1.12 | –
CGACATGTCCCGCTTCTTTCATTAATCCGTTAGCAACTGTTTTGTTATATACATTGACCTTTTAAGAGGAGGAAT | – | 2.01 | –
ACAGACGAAGGAGCCGCAAAGAAGTTATTAAAGGATGAATAAACCCTCAATATAAATATCTCTCACTTATTTAAA | 0.101 | – | cleaved RNA product abundance [2]: 0.115
CGACATGTCCCGCTTCTTTCATTACTCCGTTAGCAACTGTTTTGCTATACACATTTACCTTTTAAGAGGAGGAAT | – | 0.423 | –
CGACATGTCCCGCTTCTTTCATTAATCCGTTAGCAACTGTTTTGCCATATACATTTACCGTTTAAGAGGAGGAAT | – | 0.539 | –
ACAGACGAAGGAGCCGCAAAGAAGCTATTAAAGGATGAATAATCCCTCAATATAAATATCTCTCACTTATTTAAA | 0.144 | – | cleaved RNA product abundance [2]: 0.111
ACAGACGAAGGAGCCGCAAAGAAGTTATTAAGGGATTATTAATCCCTCAATATAAATATCTCTCACTTATTTAAA | 1.09 | – | cleaved RNA product abundance [2]: 0.957
ACAGACGAAGGAGCCGCAAAGAAGTTATTAAGGGATGAAAAATCCCTCAATATAAAAATCTCTCACTTATTTAAA | 0.692 | – | cleaved RNA product abundance [2]: 0.798
ACAGACGAAGGAGCCGCAAAGAAGTTATTAAGCGATCAATAATCCCTCAATATAAATATCTCTCACTTATTTAAA | 0.0886 | – | cleaved RNA product abundance [2]: 0.0893
CGACATGTCCCGCTTCTTTCATTAATCCGTTAGCAACAGTTTTTCTATATACATTTACCTTTTAAGAGGAGGAAT | – | 0.345 | –

Sequence | cleaved RNA product abundance [1] | cleaved RNA product abundance [3] | also measured
ACAGACGAAGGAGCCGCAAAGAAGTTATTAAGGGATCAATAATCCCTCATTATAAATATCTCTCACTTATTTAAA | 0.213 | – | –
ACAGACGAAGGAGCCGCAAAGTAGTTATTAAGGGATGAATAATCCTTCAATATAAATATCTCTCACTTATTTAAA | 0.543 | – | –
ACAGACGAAGGAGCCGCAAAGAAGTTATTAAGGGATGAATACTCCATCAATATAAATATCTCTCACTTATTTAAA | 0.137 | – | cleaved RNA product abundance [2]: 0.102; cleaved RNA product abundance [4]: 0.152
ACAGACGAAGGAGCCGCAAAGAAGCTATTAAGGGATGAATAATCCCTCAATATAAATATCTCTCACTTATTTAAA | 0.615 | – | cleaved RNA product abundance [2]: 0.571; cleaved RNA product abundance [4]: 0.588
ACAGACGAAGGAGCCGCAAAAAATTTATTAAGCGATGAATAATCCCTCAATATAAATATCTCTCACTTATTTAAA | 0.113 | – | –
CGACATGTCCCGCTTCTTTCATTAATCCGTTAGCAACTCTTTTGCTATATACATTTAACTTTTAAGAGGAGGAAT | – | 1.36 | –
ACAGACGAAGGAGCCGCAAAGAAGTTATTAAGGGATGAGTAAACCCTCAATATAAATATCTCTCACTTATTTAAA | 0.35 | – | –
CGACATGTCCCGCTTCTTTCATTAACCCTTTAGCAACTGTTTTGCTATATACATTTACCTTTTAAGAGGAGGAAT | – | 0.181 | –
ACAGACGAAGGAGCCGCAAACAAGTTATTAAGGGATGGATAATCCCTCAATATAAATATCTCTCACTTATTTAAA | 0.545 | – | –
ACAGACGAAGGAGCCGCAAAGAAGTTATTAAGGGATGAATAATCCCTAAATACAAATATCTCTCACTTATTTAAA | 0.0687 | – | –
CGACATGTCCCGCTTCTTTCATTAATCCGTTATCAACTCTTTTGCTATATACATTTACCTTTTAAGAGGAGGAAT | – | 0.252 | –
ACAGACGAAGGAGCCGCAAAGAAGTTATCAAGGGATGAAAAATCCCTCAATATAAATATCTCTCACTTATTTAAA | 0.272 | – | –
ACAGACGAAGGAGCCGCAAAGAATTTATTAAGGGCTGAATAATCCCTCAATATAAATATCTCTCACTTATTTAAA | 0.402 | – | –
ACAGACGAAGGAGCCGCAAAGAAATTATTAAGGGCTGAATAATCCCTCAATATAAATATCTCTCACTTATTTAAA | 0.498 | – | –
ACAGACGAAGGAGCCGCAAAGAAATTATTAAGGGATGATTAATCCCTCAATATAAATATCTCTCACTTATTTAAA | 0.599 | – | cleaved RNA product abundance [2]: 0.816
ACAGACGAAGGAGCCGCAAAGAAGTGACTAAGGGATGAATAATCCCTCAATATAAATATCTCTCACTTATTTAAA | 0.344 | – | –
CGACATGTCCCGCTTCTTTCATTAATACGTTAGCAACTGTTTTGTTATATACATTTACCTTTTAAGAGGAGGAAT | – | 0.372 | –
ACAGACGAAGGAGCCGCACAGAAGTTATTAAAGGATGAATAATCCCTCAATATAAATATCTCTCACTTATTTAAA | 0.177 | – | cleaved RNA product abundance [2]: 0.173
ACAGACGAAGGAGCCGCAAAGAAGTTAATAGGGGATGAATAATCCCTCAATATAAATATCTCTCACTTATTTAAA | 0.292 | – | –
CGACATGTCCCGCTTCTTTCATTAACCCGTTAGAAACTGTTTTGCTATATACATTTACCTTTTAAGAGGAGGAAT | – | 0.187 | –

Source: the supplement of paper PMC11780869
